Values quoted from earlier work as cited in publication PMC11209288.

Target: inositol 1,4,5-triphosphate receptor (IP3R) (Homo sapiens) (UniProt Q14643)
Chain of UniProt Q14643 (Q14643 whole entry): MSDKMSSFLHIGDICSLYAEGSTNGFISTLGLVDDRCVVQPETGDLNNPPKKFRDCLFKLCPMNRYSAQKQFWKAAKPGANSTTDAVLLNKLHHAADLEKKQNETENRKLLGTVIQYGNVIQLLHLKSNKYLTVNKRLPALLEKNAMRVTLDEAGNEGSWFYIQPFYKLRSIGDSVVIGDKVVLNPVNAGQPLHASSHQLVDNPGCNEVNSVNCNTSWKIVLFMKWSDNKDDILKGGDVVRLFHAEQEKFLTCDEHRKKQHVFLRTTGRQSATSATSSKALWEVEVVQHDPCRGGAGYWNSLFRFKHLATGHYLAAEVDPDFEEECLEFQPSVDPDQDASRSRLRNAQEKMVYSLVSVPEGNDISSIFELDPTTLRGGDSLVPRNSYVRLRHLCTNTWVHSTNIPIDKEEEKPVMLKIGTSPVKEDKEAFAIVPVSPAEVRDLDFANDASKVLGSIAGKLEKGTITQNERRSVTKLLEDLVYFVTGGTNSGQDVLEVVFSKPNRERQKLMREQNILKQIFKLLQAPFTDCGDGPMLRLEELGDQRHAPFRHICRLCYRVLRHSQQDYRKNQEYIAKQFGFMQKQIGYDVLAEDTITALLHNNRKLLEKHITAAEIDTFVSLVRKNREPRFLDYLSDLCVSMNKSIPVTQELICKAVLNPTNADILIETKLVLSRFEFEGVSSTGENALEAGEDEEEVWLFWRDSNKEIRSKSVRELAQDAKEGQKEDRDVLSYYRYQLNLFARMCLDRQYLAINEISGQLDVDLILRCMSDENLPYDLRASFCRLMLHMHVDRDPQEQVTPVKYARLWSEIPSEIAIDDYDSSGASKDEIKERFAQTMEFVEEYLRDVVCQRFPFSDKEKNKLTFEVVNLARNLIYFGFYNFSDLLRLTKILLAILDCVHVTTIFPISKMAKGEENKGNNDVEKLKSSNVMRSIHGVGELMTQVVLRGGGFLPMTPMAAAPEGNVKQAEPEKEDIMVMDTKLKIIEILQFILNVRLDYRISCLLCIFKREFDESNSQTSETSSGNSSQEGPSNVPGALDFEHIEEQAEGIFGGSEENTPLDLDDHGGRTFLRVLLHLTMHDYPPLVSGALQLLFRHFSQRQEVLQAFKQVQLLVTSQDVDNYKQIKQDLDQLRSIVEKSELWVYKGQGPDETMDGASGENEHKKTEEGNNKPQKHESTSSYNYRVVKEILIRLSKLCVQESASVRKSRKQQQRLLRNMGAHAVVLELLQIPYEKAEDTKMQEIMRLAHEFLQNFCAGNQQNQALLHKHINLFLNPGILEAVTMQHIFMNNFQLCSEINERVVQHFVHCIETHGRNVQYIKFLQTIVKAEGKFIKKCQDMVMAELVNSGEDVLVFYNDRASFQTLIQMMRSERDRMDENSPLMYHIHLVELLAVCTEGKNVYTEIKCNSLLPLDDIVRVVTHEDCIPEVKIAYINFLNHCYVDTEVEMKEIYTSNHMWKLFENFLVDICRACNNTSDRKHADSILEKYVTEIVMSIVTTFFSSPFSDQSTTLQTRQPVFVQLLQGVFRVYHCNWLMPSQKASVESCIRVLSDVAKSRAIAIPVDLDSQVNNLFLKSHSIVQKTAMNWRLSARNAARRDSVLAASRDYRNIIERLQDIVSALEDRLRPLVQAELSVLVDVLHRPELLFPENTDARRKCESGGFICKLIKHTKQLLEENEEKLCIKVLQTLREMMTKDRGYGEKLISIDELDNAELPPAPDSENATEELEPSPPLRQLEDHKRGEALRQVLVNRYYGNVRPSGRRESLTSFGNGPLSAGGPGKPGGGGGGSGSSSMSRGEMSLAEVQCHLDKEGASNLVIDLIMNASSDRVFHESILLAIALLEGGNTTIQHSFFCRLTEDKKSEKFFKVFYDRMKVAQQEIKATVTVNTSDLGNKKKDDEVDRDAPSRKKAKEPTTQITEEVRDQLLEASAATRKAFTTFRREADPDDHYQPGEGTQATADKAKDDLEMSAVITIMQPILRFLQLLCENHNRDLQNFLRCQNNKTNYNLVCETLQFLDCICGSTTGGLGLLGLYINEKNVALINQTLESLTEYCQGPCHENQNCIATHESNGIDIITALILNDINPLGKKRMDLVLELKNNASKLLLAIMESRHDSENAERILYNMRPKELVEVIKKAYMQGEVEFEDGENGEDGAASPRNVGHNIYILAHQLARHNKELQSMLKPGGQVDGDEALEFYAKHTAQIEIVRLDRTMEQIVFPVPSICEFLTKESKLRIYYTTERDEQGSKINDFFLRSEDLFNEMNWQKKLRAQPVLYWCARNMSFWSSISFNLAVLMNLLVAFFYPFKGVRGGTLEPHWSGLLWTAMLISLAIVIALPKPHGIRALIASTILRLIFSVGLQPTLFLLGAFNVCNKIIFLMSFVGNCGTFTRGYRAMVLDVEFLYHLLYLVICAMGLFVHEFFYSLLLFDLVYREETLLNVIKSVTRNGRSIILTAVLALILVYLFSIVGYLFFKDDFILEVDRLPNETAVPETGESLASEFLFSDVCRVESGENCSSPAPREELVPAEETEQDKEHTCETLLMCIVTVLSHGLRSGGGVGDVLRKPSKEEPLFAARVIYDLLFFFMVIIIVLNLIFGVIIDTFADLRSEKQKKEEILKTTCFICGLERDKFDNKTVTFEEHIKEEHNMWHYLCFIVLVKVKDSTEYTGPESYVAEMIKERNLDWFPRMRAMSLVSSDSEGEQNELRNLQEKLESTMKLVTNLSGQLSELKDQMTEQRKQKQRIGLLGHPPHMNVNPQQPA

Q: For Bok (from UniProt Q9UMX3), which Kd is on record?
A: 65 nM
